Reference: PMC2668763
Read-outs that look alike come from different tables or passages of the source.

**Q.** What does the source list for “hCdc14A: Cdc14A phosphorylation mutants (S351,363A and S351,363D)”?
**A.** localisation_or_trafficking (phosphorylation at S351): no change; localisation_or_trafficking (phosphorylation at S363): no change
